Source: patent US20250339569A1 (3B PHARMACEUTICALS, published 2025)
Each block holds one binder with its values, some of them ahead of it. Starred links: 1 amine or outer side, 2 acyl side, 3 side chain; linkers in the order of their positions; H or OH if unused. Positions of bridges follow the written chain, without caps; N, C: chain ends. Non-standard residues stand in square brackets, D forms with d. Groups on a side chain read outwards from the residue. Primed or numbered codes have the meaning given here. *: point of attachment. DOTA = O=C(O)CN1CCN(CC(=O)O)CCN(CC(=O)*)CCN(CC(=O)O)CC1; Ttds(3) = NCCCOCCOCCOCCCNC(=O)CCC(=O)*; mXylylene = c1cc(C[*:1])cc(C[*:2])c1; AEEA = NCCOCCOCC(=O)O; Ttds″ = Ttds spacer

Biological target: human carbonic anhydrase 9 (CAIX) (human, UniProt Q16790 38-459)
Experiment: FACS competition on HT-29 cells against tracer 3BP-2776; pIC50 category A = pIC50 >8.0
Method: CAIX-expressing human HT-29 colorectal cancer cells (DSMZ, RRID: CVCL_0320) were cultured in McCoys's 5A modified medium (Biochrom, #F1015) including 10% fetal calf serum (FCS), 2 mM L-glutamine, 100 U/ml penicillin and 100 μg/mL streptomycin. Cells were detached with Accutase (Biolegend, #423201) and washed in FACS buffer (PBS including 1% FCS). Cells were diluted in FACS buffer to a final concentration of 500.000 cells per ml. 200 μL of the cell suspension were transferred to a u-shaped non-binding 96-well plate (Greiner) and cells were washed in ice-cold FACS buffer.
When biotinylated compounds were used an additional incubation step with 1 μg/mL APC-Streptavidin (Miltenyi; #130-106-791) in 50 μL FACS buffer for 30 minutes on ice was performed.
Cells were washed twice with ice-cold FACS buffer and analyzed in an Attune NxT flow cytometer (Thermo Fisher). Median fluorescence intensities (MFI) of the APC/Cy5-channel were calculated by Attune NxT software.

pIC50: > 8 pic50
B1: 3BP-3428 (peptide)
peptide: Ac-K([AEEA-DOTA])VYCE[dP]DWLTWAC-NH2
modifications: linker 4-13 via mXylylene
notes: also called Ac-Lys(DOTA-O2Oc)-Val-Tyr-[Cys(3MeBn)-Glu-pro-Asp-Trp-Leu-Thr-Trp-Ala-Cys]-NH2

pIC50: > 8 pic50
B2: 3BP-3427 (peptide)
peptide: Ac-K(DOTA)VYCE[dP]DWLTWAC-NH2
modifications: linker 4-13 via mXylylene
SMILES: CC(=O)N[C@@H](CCCCNC(=O)CN1CCN(CC(=O)O)CCN(CC(=O)O)CCN(CC(=O)O)CC1)C(=O)N[C@H](C(=O)N[C@@H](Cc1ccc(O)cc1)C(=O)N[C@H]1CSCc2cccc(c2)CSC[C@@H](C(N)=O)NC(=O)[C@H](C)NC(=O)[C@H](Cc2c[nH]c3ccccc23)NC(=O)[C@H]([C@@H](C)O)NC(=O)[C@H](CC(C)C)NC(=O)[C@H](Cc2c[nH]c3ccccc23)NC(=O)[C@H](CC(=O)O)NC(=O)[C@H]2CCCN2C(=O)[C@H](CCC(=O)O)NC1=O)C(C)C
notes: also called Ac-Lys(DOTA)-Val-Tyr-[Cys(3MeBn)-Glu-pro-Asp-Trp-Leu-Thr-Trp-Ala-Cys]-NH2

pIC50: > 8 pic50
B3: 3BP-3840 (peptide)
peptide: Ac-K(DOTA)VYCE[dP]DWLTWSC-NH2
modifications: linker 4-13 via 3MeBn
notes: also called Ac-Lys(DOTA)-Val-Tyr-[Cys(3MeBn)-Glu-pro-Asp-Trp-Leu-Thr-Trp-Ser-Cys]-NH2

pIC50: > 8 pic50
B4: 3BP-2837 (peptide)
peptide: Ac-VYCEGDWLTWQC-NH2
modifications: linker 3-12 via mXylylene
SMILES: CC(=O)N[C@H](C(=O)N[C@@H](Cc1ccc(O)cc1)C(=O)N[C@H]1CSCc2cccc(c2)CSC[C@@H](C(N)=O)NC(=O)[C@H](CCC(N)=O)NC(=O)[C@H](Cc2c[nH]c3ccccc23)NC(=O)[C@H]([C@@H](C)O)NC(=O)[C@H](CC(C)C)NC(=O)[C@H](Cc2c[nH]c3ccccc23)NC(=O)[C@H](CC(=O)O)NC(=O)CNC(=O)[C@H](CCC(=O)O)NC1=O)C(C)C

pIC50: > 8 pic50
Binder: {DOTA-Ttds″}-VYCEGDWLTWAC-NH2 (linker 3-12 via mXylylene; not fully specified) [3BP-3272]

pIC50: > 8 pic50
B5: 3BP-3279 (peptide)
peptide: {DOTA-Ttds″}-VYCE[dA]DWLTWAC-NH2
modifications: linker 3-12 via mXylylene; not fully specified
notes: also called DOTA-Ttds-Val-Tyr-[Cys(3MeBn)-Glu-ala-Asp-Trp-Leu-Thr-Trp-Ala-Cys]-NH2

pIC50: > 8 pic50
B6: 3BP-3058 (peptide)
peptide: Ac-VYCEGDWLTWAC-NH2
modifications: linker 3-12 via mXylylene
SMILES: CC(=O)N[C@H](C(=O)N[C@@H](Cc1ccc(O)cc1)C(=O)N[C@H]1CSCc2cccc(c2)CSC[C@@H](C(N)=O)NC(=O)[C@H](C)NC(=O)[C@H](Cc2c[nH]c3ccccc23)NC(=O)[C@H]([C@@H](C)O)NC(=O)[C@H](CC(C)C)NC(=O)[C@H](Cc2c[nH]c3ccccc23)NC(=O)[C@H](CC(=O)O)NC(=O)CNC(=O)[C@H](CCC(=O)O)NC1=O)C(C)C

pIC50: > 8 pic50
B7: 3BP-3270 (peptide)
peptide: {DOTA-Ttds(3)}-VYCE[dA]DWLTWQC-NH2
modifications: linker 3-12 via mXylylene
notes: also called DOTA-Ttds-Val-Tyr-[Cys(3MeBn)-Glu-ala-Asp-Trp-Leu-Thr-Trp-Gln-Cys]-NH2

pIC50: > 8 pic50
B8: 3BP-3046 (peptide)
peptide: Ac-VYCE[dA]DWLTWQC-NH2
modifications: linker 3-12 via mXylylene
SMILES: CC(=O)N[C@H](C(=O)N[C@@H](Cc1ccc(O)cc1)C(=O)N[C@H]1CSCc2cccc(c2)CSC[C@@H](C(N)=O)NC(=O)[C@H](CCC(N)=O)NC(=O)[C@H](Cc2c[nH]c3ccccc23)NC(=O)[C@H]([C@@H](C)O)NC(=O)[C@H](CC(C)C)NC(=O)[C@H](Cc2c[nH]c3ccccc23)NC(=O)[C@H](CC(=O)O)NC(=O)[C@@H](C)NC(=O)[C@H](CCC(=O)O)NC1=O)C(C)C
notes: also called Ac-Val-Tyr-[Cys(3MeBn)-Glu-ala-Asp-Trp-Leu-Thr-Trp-Gln-Cys]-NH2

pIC50: > 8 pic50
B9: 3BP-3052 (peptide)
peptide: Ac-VYCAGDWLTWQC-NH2
modifications: linker 3-12 via mXylylene
SMILES: CC(=O)N[C@H](C(=O)N[C@@H](Cc1ccc(O)cc1)C(=O)N[C@H]1CSCc2cccc(c2)CSC[C@@H](C(N)=O)NC(=O)[C@H](CCC(N)=O)NC(=O)[C@H](Cc2c[nH]c3ccccc23)NC(=O)[C@H]([C@@H](C)O)NC(=O)[C@H](CC(C)C)NC(=O)[C@H](Cc2c[nH]c3ccccc23)NC(=O)[C@H](CC(=O)O)NC(=O)CNC(=O)[C@H](C)NC1=O)C(C)C
